Measured values: US20230013244A1 (BioIncept, LLC, priority 2014, published 2023)

Molecular target: Glucosidase 2 subunit beta (human) (UniProt P14314)
Assay: PIF affinity column + LC-MS/MS, CD4+ cell lysate

Chain of Glucosidase 2 subunit beta (human) (P14314 other isoform, or with tags, fused parts or gaps limits assumed): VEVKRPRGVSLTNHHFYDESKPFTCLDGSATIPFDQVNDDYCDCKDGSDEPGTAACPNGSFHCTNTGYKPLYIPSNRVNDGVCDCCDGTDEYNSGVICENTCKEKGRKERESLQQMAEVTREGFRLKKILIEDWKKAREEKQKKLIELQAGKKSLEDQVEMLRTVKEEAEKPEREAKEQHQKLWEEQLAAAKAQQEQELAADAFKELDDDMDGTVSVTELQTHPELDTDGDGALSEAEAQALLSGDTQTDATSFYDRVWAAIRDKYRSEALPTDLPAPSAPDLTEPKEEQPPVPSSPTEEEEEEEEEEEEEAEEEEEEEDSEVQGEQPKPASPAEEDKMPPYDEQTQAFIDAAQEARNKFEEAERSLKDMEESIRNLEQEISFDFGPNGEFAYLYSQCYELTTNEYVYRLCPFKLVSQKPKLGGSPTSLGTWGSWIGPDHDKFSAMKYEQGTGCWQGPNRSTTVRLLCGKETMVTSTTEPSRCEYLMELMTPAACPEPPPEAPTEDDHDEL

PIF-resin (PIF15 affinity ligand on agarose) (peptide)
1: Ave | Inject 1 | Inject 2 | Inject 3
